Experimental data: the nanobody polyreactivity screen of Harvey et al. (2022)

Assay: yeast display, Sf9 membrane polyspecificity reagent, FACS + sequencing; frameworks hold sequencing errors
In short: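 Genes from sorted yeast were amplified by colony PCR, read by MiSeq 2 × 250 sequencing and filtered on CDR length. These cells carried a synthetic nanobody library in Saccharomyces cerevisiae BJ5465 and were sorted by FACS into low and high (top ~1%) gates on anti-HA and streptavidin fluorescence. Polyreactivity is labelled according to the gate of origin.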

Sequence	polyreactivity (PSR sort gate)
QVQLVESGGGLVQAGGSLRLRCAASGSSFIWNAMGWYRQAPGKERELVAAISSGGSTYYADSVKGRFTISRDNAKNTVDLQMNSQKPPDTAVYYCAAEYVNNVWEQSYAVYSTDDYWGQGTQVTVSS	low polyreactivity
QVQLVESGGGLVQAGGSLRLRCAASGSTFAVYAMGWYRQAPGKERELVATIRWNGGSTYYADSVKGRFTISRDNAKNTVYLQMNSLKPEDTAVYYCAAPPIRPNLYDYWGQGTQVTVSS	high polyreactivity
QVQLVESGGGLVQAGGSLRLRCAASGSTFAYYAMGWYRQAPGKERELVAAITASATNTYYADSVKGRFTISRDHAKNTVYLQMNSLKPEDTAVYYCAADDVDVEHQASWDDYDSWGQGTQVTVSS	low polyreactivity
QVQLVESGGGLVQAGGSLRLRCAASGSTFLKNAKGWYRQAPGKERELVAAISYSTTRSYYADSVKGRFTISRDNAKNTVYLQMNSLKPEDTAVYYCAADGYWWTYTRYDYWGQGTQVTVSS	low polyreactivity
QVQLVESGGGLVQAGGSLRLRCAASGSTFPYNAMGWYRQAPGKERELVAAITSAVGTNYADSVKGRVTISRDNAKNTVYLQMNSLKREDTAVYYCAARYIETPLTVLSLMDYWGQGTQVTVSS	low polyreactivity
QVQLVESGGGLVQAGGSLRLRCAASGSTFSRYTMGWYRQAPGKERELVAAISKSGGSTYYADSVKGRFTISRDNAKNTVYLQMNSLKPEDTAVYYCAALVRAGTSLDFDYWGQGTQVTVSS	high polyreactivity
QVQLVESGGGLVQAGGSLRLRCAASGSTFSSYAMGWYRQAPGKERELVAAISSRGGRTYYADSVKARFTISRDNAKNTVYLQMNRLIPEDTAVYYCAADWGVRDEYYYWGQGTQVSVSS	high polyreactivity
QVQLVESGGGLVQAGGSLRLRCAASGSTFSTNAMGWYSQAPGKERELVASITRSGGSTYYADSVKGRFTISRDNAKNTFYLQMTSLKPEDTAVYYCNADGYYDYDYGFWGQGTQVTVSS	low polyreactivity
QVQLVESGGGLVQAGGSLRLRCAASGSTFVYNGMGWYRQAPGKERELVATISSTGSTNYADSVKGRFTISRDNAKNTVFLQMNSLKPEDTAVYYCATEYITYLAYDYWGQGTQVTVSS	low polyreactivity
QVQLVESGGGLVQAGGSLRLRCAASGSTLSNYAMGWYRQAPGKERELVAAITWSTGSTYYADSVKGRFTISRDNAKNSVYLQMNSLKPEDTAVYYCNAGSQYLLVGLYDYWGQGTQVTVSS	low polyreactivity
QVQLVESGGGLVQAGGSLRLRCAASGTNSVQYAMGGYRQAPGKERELVAAIDRSGGSTSYADSVKGRFTISRDNAKNTVYLQMNSLKQEDTAVYYCNADPFRSTYSYDYWGQGTQVTVSS	low polyreactivity
QVQLVESGGGLVQAGGSLRLRCAASGYIFRYYAMGWYRQAPGKEREFVAAISRNGGSTYYADSVKGRFTISRDKAKNTVYLQMNSLKPEDTAVYNCNVVGHDDKYDYWGQGTQVTVSS	high polyreactivity
QVQLVESGGGLVQAGGSLRLRCAATGSTFVYNAMGWYRPAPGKVRELVARITRSGGSTYYADSVKGRFTISRDNAKNTVYLQMKSLKPEDTAVYYCAKEREGHSVRIGPRYNYWGQGSQVTVSS	low polyreactivity
QVQLVESGGGLVQAGGSLRLRCASSGRTFRYNAMGWYRQAPGKERELVATISSSGGSTSYADSVKGRFTISRDNAKKTVYLQMNSLKPEDTAVYYCNKRRLVAAGNGMDSWGQGTQVTVSS	low polyreactivity
QVQLVESGGGLVQAGGSLRLRCASSGSIFHRNAMGWYRQAPGKERELVATITSNGGSTYYADSVKGRFTISRDNAKNTVFLHMNRLKPEDTAVYFCARKYRSPISALLTGDYWGQGTEVTVSS	low polyreactivity
QVQLVESGGGLVQAGGSLRLRCATSGSIFRIYAMGWYRQAPGKERELVAAIDSGGSTNYADYVKGRFTISRDNAKNTVYFQMNCLKPEDTAVFYCNVEAWWLSYSEYDYWGQGTQVTVSS	high polyreactivity
QVQLVESGGGLVQAGGSLRLRCPASGFIFFWNTMGWYRQAPGKERELVAAISQSGDSTYYADSVKGRFTISRDSAKNTVYLQMNSLKPEDTAVYFWAADKKTITYRYDYWGLGTQVTVSS	low polyreactivity
QVQLVESGGGLVQAGGSLRLRGAASGSTFIFNVRGWYRQAPGKERELVAVISWSGGSTYYADSVKGRFTISRDNAKNTVYLQMNSLKPEDTAVYYCARDQTFGPSPYDWYYYPGYDYWGQGTQVTVSS	low polyreactivity
QVQLVESGGGLVQAGGSLRLRSPASGSTLYRYAMGWYRQAPGKERELVAAIYSSGGTTFYADSVKGRFTISRDNAKKTVYLQMKSLKPEDTAVYYCNRTARKLRTVHSSVVGLDYWGQGTQVTVSS	low polyreactivity
QVQLVESGGGLVQAGGSLRLSAATGSTLAGKTMGWYRQASRKERELVAAINDSGGSTYYADSVKGRFTISRDNAKNSVYLQMNSLKPEDTAVYYCNADGYAYIEDGYDYWGQCTQVTVSS	low polyreactivity

Sequence	polyreactivity (PSR sort gate)
QVQLVESGGGLVQAGGSLRLSCAAAGTYKYYAMGWYRQAPGKERELVAASNRGGSTNYADSVKGRFTISRDNAKNTVYLQMNSLKPEDTAVYYCAAERWYVRGRHYFYWGQGTQVTVSS	high polyreactivity
QVQLVESGGGLVQAGGSLRLSCAACGITFLSNAMGWYRQAPGKERELVAAITTSGGTTYADSVKGRFTISRDNAKNTVYLQMNSLKPEDTAVYYCNAVGYTPRKPSKFDYWGQGTQVTVSS	low polyreactivity
QVQLVESGGGLVQAGGSLRLSCAACGRILWTYAMGLYRQAPGKERELVADISRTGSTNYADSVKGRFTISRDNAKNTVYLQMNSLKPEDTAVYYCAADRWAHTHRLGYWGQGTQVTVSS	low polyreactivity
QVQLVESGGGLVQAGGSLRLSCAACGRTFYQNAMGWYRQAPGKERELVAAISRSGGSTYYADSVKGRFTISLYNAKNTVYLQMNSLKPEDTAVYFCAADPRSYGGGYDYWGQGTQVTVSS	high polyreactivity
QVQLVESGGGLVQAGGSLRLSCAACGSIFLKYVMGWYRQAPGKERELVAAISFRSGSTYYADSVKGRFTISRDNAKNTVYVQMNSLKPEDTAVYYCAASWTPRYLGFDHWGQGSQVTVSS	high polyreactivity
QVQLVESGGGLVQAGGSLRLSCAACGSISVYNAMGWYRQAPGKERELVAAISWSGGRTSYADSVKGRFTISRDNAKNTVYLQMNSLKPEDTAVYYCAADELTVMWDEDYWGQGTQVTVSS	low polyreactivity
QVQLVESGGGLVQAGGSLRLSCAAPGSTFVYYAMGWFRQAPGKEGELVAAISRSGGHTYYADSVKGRFTISRDKAKKTVYLQMNSLKPEETAVYYCAARSYGVQYYYWGQRTQVTVSS	high polyreactivity
QVQLVESGGGLVQAGGSLRLSCAASAFTFRRYVKGWYRQAPGKERELVAAISSGGRTNYADSVKGRFTISRYNAKNTVYLQMNSLKPEDTAVYYCAADRYSSYYVLYDYWGQGTQVSVSS	high polyreactivity
QVQLVESGGGLVQAGGSLRLSCAASAFTFYYYDMGWYRQAPGKERELVAAIDTSDGSTYYADSVKGRFTISRDNAKNTVYLQMNSLKPEDTAVYYCSAEVDWVPFLLVYWGQGTQVTVSS	low polyreactivity
QVQLVESGGGLVQAGGSLRLSCAASAFYTNAMGWYRQAPGKERELVAAITSDGDSTYYADSVKGRFTISRDNAKNTVYLQMNSLKPEDNAVYYCAADAVPTSVVDWGFYGMYWGQGTQVTVSS	low polyreactivity
QVQLVESGGGLVQAGGSLRLSCAASALTFHFNAMGWYRQAPGKERELVASITSSGGSTYYADSVKGRFTISRDNAKNTVSLQMNSLKPEDTAVYYCNAEGSSVLTGYWGYPPYWDTYDYSGQGTQVTVSS	low polyreactivity
QVQLVESGGGLVQAGGSLRLSCAASANIFKPNAMGWYRQAPGKERELVAAISDSGGNTYYADSVKGRFTISRDNAKNTVYLQMNSLKPEDTAVYYCARRYYWYSGRYDYWGQGTQVTVSS	high polyreactivity
QVQLVESGGGLVQAGGSLRLSCAASARIFKLNAMGGYRQAPVKERELVAAINSGTRTYYADSVKGRFSISRDNAKNTVYLQMKSLKPEDTAVYYGAAEGVWWYSRYDYWGQGTQVTVSS	high polyreactivity
QVQLVESGGGLVQAGGSLRLSCAASARIFKTYAMGWYIQAPGKERELVATITWSGGSTYADSVKGRFTITRDNAKNTVYLQMNSLKPEDTAVYYCAAGRTYYSPGYRSYSGYDYWGQGTQVTLSS	high polyreactivity
QVQLVESGGGLVQAGGSLRLSCAASARIFVINAMGWYRQAPGKERELVADITWSGGSTYADSVKGRFTISRDNAKNTVYLQMYSLKPEDTAVYYCAAVTFVPRSTNGISLYDYWGQGTQVTVSS	high polyreactivity
QVQLVESGGGLVQAGGSLRLSCAASARIFVPYARGWYRQAPGKERELVAAIRKSGGSTYYADSVKGRFTISRDNAKNTVYLQMNSLKPDVTAVYYCAASTLGMVQTQPGKRKTYLYGYWGQGTQVTVSS	high polyreactivity
QVQLVESGGGLVQAGGSLRLSCAASARIFWRNTMGWSRQAPGKERELVAAINYSGGRTYYADSVQGRFTISRDKAKNTVYLQMNSLKPEDTAVFDCAATPPVATNGRYYYWGQGTQVTVSS	low polyreactivity
QVQLVESGGGLVQAGGSLRLSCAASARIFYPYAMGWYRQAPGKERELVAAINWIGGSTYYADSVKGRFTISRDNAKYTVYLQMNSLKPEDSAVYYCAASYWHRRYDYWGQGTQVTLSS	high polyreactivity
QVQLVESGGGLVQAGGSLRLSCAASARIIFRNAMGWYRQAPGKERELVAAITYSGGSTYYADSVKGRFTISRDNAKNTVYLQMNSLKPEDTAVYYCGAGYWFCYSRVTRYDYWGQGTQVTVSS	high polyreactivity
QVQLVESGGGLVQAGGSLRLSCAASARILAYYAMGWYRQAPGKERELVAAITSGGRTYYADSVKGRFTISRDNAKNTVYLQMNSLKPEDTAVYYGAVRWYPRYGSRYDYWGQGTQVTVSS	high polyreactivity
